Data reported in publication PMC7608914, “Bridging of nucleosome-proximal DNA double-strand breaks by PARP2 enhances its interaction with HPF1”.

Columns and labels:
Settings in all cases: protein: recombinant; (HisTrap purified); label: 6-FAM on 5' end of bottom strand; blunt
PARP2-WT [1] = biological target: T1, PARP2-WT (Homo sapiens, UniProt Q9UGN5-2 1-570); test: fluorescence polarization; 60 mM KCl, 8 mM MgCl2; FP/FRET: 50 mM Tris-HCl pH 8, 50 mM NaCl, 1 mM MgCl2, 0.1 mM EDTA, 0.1 mM TCEP, 0.01% NP-40, temperature not stated; EMSA: 20 mM Tris pH 7.5, 1 mM EDTA, 1 mM DTT, 4 C
PARP2-QFRD [2] = biological target: T2, PARP2-QFRD (Homo sapiens, UniProt Q9UGN5-2 1-570, Q112R;F113D); test: as above
PARP2-QFRD [3] = biological target: T2, PARP2-QFRD; test: fluorescence polarization; 50 mM NaCl, 1 mM MgCl2; Hill 0.9; FP/FRET: 50 mM Tris-HCl pH 8, 50 mM NaCl, 1 mM MgCl2, 0.1 mM EDTA, 0.1 mM TCEP, 0.01% NP-40, temperature not stated; EMSA: 20 mM Tris pH 7.5, 1 mM EDTA, 1 mM DTT, 4 C
PARP2-WT [4] = biological target: T1, PARP2-WT; test: fluorescence polarization; 50 mM NaCl, 1 mM MgCl2; Hill 1.2; FP/FRET: 50 mM Tris-HCl pH 8, 50 mM NaCl, 1 mM MgCl2, 0.1 mM EDTA, 0.1 mM TCEP, 0.01% NP-40, temperature not stated; EMSA: 20 mM Tris pH 7.5, 1 mM EDTA, 1 mM DTT, 4 C

B1: p18mer_fluorescein (dsDNA)
DNA 1: GGGTTGCGGCCGCTTGGG
DNA 2: CCCAAGCGGCCGCAACCC
modifications: 5'-phosphate on top strand
PARP2-WT [1]
  Kd: ~240 nM
PARP2-QFRD [2]
  Kd: ~240 nM
PARP2-QFRD [3]
  Kd: 17.1 ± 1.8 nM
PARP2-WT [4]
  Kd: 11.1 ± 0.4 nM
